In general, IC50 refers to the concentration needed to halve the response being measured. Read a high IC50 as lower potency.

Assay [1] deals with mouse EphA4 ectodomain fused to Fc (mouse) (UniProt Q03137). Kind of assay: competition ELISA: ephrin-A5 AP binding to immobilized EphA4 Fc.
Assay [2] addresses EphA4 on neurons of embryonic day 6 chicken nasal retinal explants (chicken) (UniProt Q07496). As to the kind of experiment: cell-based or functional assay.

Chain of ephrin-A5 Fc (Fc fusion) (P52803 21-203): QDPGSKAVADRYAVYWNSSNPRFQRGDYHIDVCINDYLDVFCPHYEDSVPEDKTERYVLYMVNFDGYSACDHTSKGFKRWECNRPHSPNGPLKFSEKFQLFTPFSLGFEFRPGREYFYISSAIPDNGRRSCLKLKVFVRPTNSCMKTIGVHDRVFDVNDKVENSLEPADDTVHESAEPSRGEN
Chain of EphA4 on neurons of embryonic day 6 chicken nasal retinal explants (chicken) (Q07496 20-986): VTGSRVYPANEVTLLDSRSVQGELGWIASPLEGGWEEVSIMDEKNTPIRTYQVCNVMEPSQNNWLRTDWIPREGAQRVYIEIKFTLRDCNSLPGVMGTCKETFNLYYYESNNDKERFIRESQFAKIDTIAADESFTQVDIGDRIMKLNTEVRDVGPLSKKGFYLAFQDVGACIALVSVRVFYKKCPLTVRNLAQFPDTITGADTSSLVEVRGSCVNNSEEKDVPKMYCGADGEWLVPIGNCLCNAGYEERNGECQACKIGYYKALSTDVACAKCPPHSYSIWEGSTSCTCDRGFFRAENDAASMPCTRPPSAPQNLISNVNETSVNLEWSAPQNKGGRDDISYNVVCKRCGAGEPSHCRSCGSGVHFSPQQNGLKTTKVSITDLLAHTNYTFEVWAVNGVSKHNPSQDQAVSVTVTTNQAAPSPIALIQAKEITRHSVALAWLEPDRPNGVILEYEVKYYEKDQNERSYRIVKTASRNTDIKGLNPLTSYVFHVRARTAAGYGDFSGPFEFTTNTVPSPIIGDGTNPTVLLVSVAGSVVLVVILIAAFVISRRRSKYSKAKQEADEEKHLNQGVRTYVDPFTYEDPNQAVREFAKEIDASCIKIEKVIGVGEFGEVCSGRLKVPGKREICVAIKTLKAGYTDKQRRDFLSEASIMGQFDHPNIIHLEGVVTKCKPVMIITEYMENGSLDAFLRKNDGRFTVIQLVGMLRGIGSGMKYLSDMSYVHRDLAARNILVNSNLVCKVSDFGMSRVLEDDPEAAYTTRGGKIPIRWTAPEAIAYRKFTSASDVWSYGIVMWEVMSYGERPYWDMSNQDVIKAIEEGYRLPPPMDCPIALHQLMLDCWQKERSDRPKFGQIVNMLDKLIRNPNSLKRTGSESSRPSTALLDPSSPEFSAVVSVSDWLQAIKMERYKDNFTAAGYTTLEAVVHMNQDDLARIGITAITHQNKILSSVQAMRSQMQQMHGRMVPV
Chain of mouse EphA4 ectodomain fused to Fc (mouse) (Q03137 20-547): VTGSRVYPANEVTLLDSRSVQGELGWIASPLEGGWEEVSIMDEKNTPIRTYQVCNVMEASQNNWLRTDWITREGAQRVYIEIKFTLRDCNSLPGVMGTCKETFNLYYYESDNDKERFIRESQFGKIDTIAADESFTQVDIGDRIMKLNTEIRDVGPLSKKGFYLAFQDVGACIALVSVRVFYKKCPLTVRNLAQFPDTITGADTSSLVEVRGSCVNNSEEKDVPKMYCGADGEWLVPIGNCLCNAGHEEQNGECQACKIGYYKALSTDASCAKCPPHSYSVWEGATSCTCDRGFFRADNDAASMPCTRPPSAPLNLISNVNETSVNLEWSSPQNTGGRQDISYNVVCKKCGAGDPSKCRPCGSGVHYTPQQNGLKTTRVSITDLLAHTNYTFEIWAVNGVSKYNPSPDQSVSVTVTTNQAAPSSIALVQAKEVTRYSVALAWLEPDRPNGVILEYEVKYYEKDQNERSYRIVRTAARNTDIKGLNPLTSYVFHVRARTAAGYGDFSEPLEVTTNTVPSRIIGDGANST

In turn, βAla1-PY-Lys7-βAla8.am (peptide) registered an IC50 in assay [1] of 70 nM.

In assay [2], ephrin-A5 Fc (Fc fusion) showed a percent collapsed growth cones, chicken nasal retinal explants (experiment with APY-d3.am) of 70% and a percent collapsed growth cones, chicken nasal retinal explants (experiment with APY-βAla8.am) of 65%.

(Values after patent US20190038704A1.)
